# Data reported in publication PMC2644375.
# B1: Cdc34, P49427 1-236 (enzyme)
# chain: MARPLVPSSQKALLLELKGLQEEPVEGFRVTLVDEGDLYNWEVAIFGPPNTYYEGGYFKARLKFPIDYPYSPPAFRFLTKMWHPNIYETGDVCISILHPPVDDPQSGELPSERWNPTQNVRTILLSVISLLNEPNTFSPANVDASVMYRKWKESKGKDREYTDIIRKQVLGTKVDAERDGVKVPTTLAEYCVKTKAPAPDEGSDLFYDDYYEDGEVEEEADSCFGDDEDDSGTEES
# Key:
# Cul1 (CFP)–Rbx1 (human) = Cul1 (CFP)–Rbx1 (human) (UniProt Q13616); experiment: FRET or BRET
# [1] = target: Nedd8 Cul1 (CFP)–Rbx1 (quantitatively neddylated) (UniProt Q13616); experiment: FRET or BRET
# [2] = target: SCF^Skp2 (unmodified) (human), Q13616
Molecule,Kd (Cul1 (CFP)–Rbx1 (human)),fold lowering of Kd against unmodified Cul1 (CFP)–Rbx1 [1],"Km for Cdc34 in ubiquitination of p27-Cdk2-CycE (multi-turnover, varying Cdc34) [2]"
LG-labeled Cdc34 (from UniProt P49427 1-236) (enzyme),82 nM,3 fold,–
B1,–,–,6.1 µM
